From patent publication US20250262210A1 (TRUSTEES OF COLUMBIA UNIVERSITY IN THE CITY OF NEW YORK, published 2025)
Substitutions are numbered along the chain they refer to.

T1: LZTR1 R810W-FLAG (human, UniProt Q8N653 1-840)
T1 construct: Stably expressed in U87 cells by lentivirus; also called LZTR1-FLAG-R810W; LZTR1 RW; not shown: FLAG tag
T1 sequence (looked up): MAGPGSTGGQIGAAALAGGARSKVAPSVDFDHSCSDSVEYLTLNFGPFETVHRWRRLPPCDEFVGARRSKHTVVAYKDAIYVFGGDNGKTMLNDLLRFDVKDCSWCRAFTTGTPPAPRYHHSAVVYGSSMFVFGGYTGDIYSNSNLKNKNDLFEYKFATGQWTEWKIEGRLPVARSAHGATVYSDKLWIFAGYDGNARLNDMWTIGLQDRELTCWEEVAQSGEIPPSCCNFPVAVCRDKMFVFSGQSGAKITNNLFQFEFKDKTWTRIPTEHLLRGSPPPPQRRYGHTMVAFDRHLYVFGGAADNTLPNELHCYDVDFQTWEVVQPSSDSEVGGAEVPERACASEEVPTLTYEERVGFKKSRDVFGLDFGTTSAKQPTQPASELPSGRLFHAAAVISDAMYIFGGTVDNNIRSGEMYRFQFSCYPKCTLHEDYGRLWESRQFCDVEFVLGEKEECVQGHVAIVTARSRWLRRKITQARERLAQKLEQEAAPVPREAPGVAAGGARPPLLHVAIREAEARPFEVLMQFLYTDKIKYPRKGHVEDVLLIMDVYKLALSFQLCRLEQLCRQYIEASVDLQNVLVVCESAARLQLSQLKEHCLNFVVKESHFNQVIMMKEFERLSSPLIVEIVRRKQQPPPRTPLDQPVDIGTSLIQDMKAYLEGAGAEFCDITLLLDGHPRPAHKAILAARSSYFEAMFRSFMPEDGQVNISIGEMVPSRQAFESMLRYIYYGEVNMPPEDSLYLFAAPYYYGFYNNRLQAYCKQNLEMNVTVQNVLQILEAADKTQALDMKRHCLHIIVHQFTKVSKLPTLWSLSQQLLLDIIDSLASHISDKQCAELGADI

T2: LZTR1-FLAG (human, UniProt Q8N653 1-840)
T2 construct: Expressed in HEK 293T, HeLa or U87 cells; used as cell lysate; also called LZTR1 wild type-FLAG; LZTR1 WT; not shown: FLAG tag at the C-terminus
T2 sequence (looked up): T1 sequence (looked up) with W810R

B1: ATF6B (other, human, UniProt Q99941 2-703, looked up)
chain: AELMLLSEIADPTRFFTDNLLSPEDWGLQNSTLYSGLDEVAEEQTQLFRCPEQDVPFDGSSLDVGMDVSPSEPPWELLPIFPDLQVKSEPSSPCSSSSLSSESSRLSTEPSSEALGVGEVLHVKTESLAPPLCLLGDDPTSSFETVQINVIPTSDDSSDVQTKIEPVSPCSSVNSEASLLSADSSSQAFIGEEVLEVKTESLSPSGCLLWDVPAPSLGAVQISMGPSLDGSSGKALPTRKPPLQPKPVVLTTVPMPSRAVPPSTTVLLQSLVQPPPVSPVVLIQGAIRVQPEGPAPSLPRPERKSIVPAPMPGNSCPPEVDAKLLKRQQRMIKNRESACQSRRKKKEYLQGLEARLQAVLADNQQLRRENAALRRRLEALLAENSELKLGSGNRKVVCIMVFLLFIAFNFGPVSISEPPSAPISPRMNKGEPQPRRHLLGFSEQEPVQGVEPLQGSSQGPKEPQPSPTDQPSFSNLTAFPGGAKELLLRDLDQLFLSSDCRHFNRTESLRLADELSGWVQRHQRGRRKIPQRAQERQKSQPRKKSPPVKAVPIQPPGPPERDSVGQLQLYRHPDRSQPAFLDAIDRREDTFYVVSFRRDHLLLPAISHNKTSRPKMSLVMPAMAPNETLSGRGAPGDYEEMMQIECEVMDTRVIHIKTSTVPPSLRKQPSPTPGNATGGPLPVSAASQAHQASHQPLYLNHP
B2: BRAT1 (other, human, UniProt Q6PJG6 1-821, looked up)
chain: MDPECAQLLPALCAVLVDPRQPVADDTCLEKLLDWFKTVTEGESSVVLLQEHPCLVELLSHVLKVQDLSSGVLSFSLRLAGTFAAQENCFQYLQQGELLPGLFGEPGPLGRATWAVPTVRSGWIQGLRSLAQHPSALRFLADHGAVDTIFSLQGDSSLFVASAASQLLVHVLALSMRGGAEGQPCLPGGDWPACAQKIMDHVEESLCSAATPKVTQALNVLTTTFGRCQSPWTEALWVRLSPRVACLLERDPIPAAHSFVDLLLCVARSPVFSSSDGSLWETVARALSCLGPTHMGPLALGILKLEHCPQALRTQAFQVLLQPLACVLKATVQAPGPPGLLDGTADDATTVDTLLASKSSCAGLLCRTLAHLEELQPLPQRPSPWPQASLLGATVTVLRLCDGSAAPASSVGGHLCGTLAGCVRVQRAALDFLGTLSQGTGPQELVTQALAVLLECLESPGSSPTVLKKAFQATLRWLLSSPKTPGCSDLGPLIPQFLRELFPVLQKRLCHPCWEVRDSALEFLTQLSRHWGGQADFRCALLASEVPQLALQLLQDPESYVRASAVTAMGQLSSQGLHAPTSPEHAEARQSLFLELLHILSVDSEGFPRRAVMQVFTEWLRDGHADAAQDTEQFVATVLQAASRDLDWEVRAQGLELALVFLGQTLGPPRTHCPYAVALPEVAPAQPLTEALRALCHVGLFDFAFCALFDCDRPVAQKSCDLLLFLRDKIASYSSLREARGSPNTASAEATLPRWRAGEQAQPPGDQEPEAVLAMLRSLDLEGLRSTLAESSDHVEKSPQSLLQDMLATGGFLQGDEADCY
B3: CCNB2 (other, human, UniProt O95067 1-398, looked up)
chain: MALLRRPTVSSDLENIDTGVNSKVKSHVTIRRTVLEEIGNRVTTRAAQVAKKAQNTKVPVQPTKTTNVNKQLKPTASVKPVQMEKLAPKGPSPTPEDVSMKEENLCQAFSDALLCKIEDIDNEDWENPQLCSDYVKDIYQYLRQLEVLQSINPHFLDGRDINGRMRAILVDWLVQVHSKFRLLQETLYMCVGIMDRFLQVQPVSRKKLQLVGITALLLASKYEEMFSPNIEDFVYITDNAYTSSQIREMETLILKELKFELGRPLPLHFLRRASKAGEVDVEQHTLAKYLMELTLIDYDMVHYHPSKVAAAASCLSQKVLGQGKWNLKQQYYTGYTENEVLEVMQHMAKNVVKVNENLTKFIAIKNKYASSKLLKISMIPQLNSKAVKDLASPLIGRS
B4: CARS (other, human, UniProt P49589 2-748, looked up)
chain: ADSSGQQGKGRRVQPQWSPPAGTQPCRLHLYNSLTRNKEVFIPQDGKKVTWYCCGPTVYDASHMGHARSYISFDILRRVLKDYFKFDVFYCMNITDIDDKIIKRARQNHLFEQYREKRPEAAQLLEDVQAALKPFSVKLNETTDPDKKQMLERIQHAVQLATEPLEKAVQSRLTGEEVNSCVEVLLEEAKDLLSDWLDSTLGCDVTDNSIFSKLPKFWEGDFHRDMEALNVLPPDVLTRVSEYVPEIVNFVQKIVDNGYGYVSNGSVYFDTAKFASSEKHSYGKLVPEAVGDQKALQEGEGDLSISADRLSEKRSPNDFALWKASKPGEPSWPCPWGKGRPGWHIECSAMAGTLLGASMDIHGGGFDLRFPHHDNELAQSEAYFENDCWVRYFLHTGHLTIAGCKMSKSLKNFITIKDALKKHSARQLRLAFLMHSWKDTLDYSSNTMESALQYEKFLNEFFLNVKDILRAPVDITGQFEKWGEEEAELNKNFYDKKTAIHKALCDNVDTRTVMEEMRALVSQCNLYMAARKAVRKRPNQALLENIALYLTHMLKIFGAVEEDSSLGFPVGGPGTSLSLEATVMPYLQVLSEFREGVRKIAREQKVPEILQLSDALRDNILPELGVRFEDHEGLPTVVKLVDRNTLLKEREEKRRVEEEKRKKKEEAARRKQEQEAAKLAKMKIPPSEMFLSETDKYSKFDENGLPTHDMEGKELSKGQAKKLKKLFEAQEKLYKEYLQMAQNGSFQ
B5: ATG13 (other, human, UniProt O75143 1-517, looked up)
chain: METDLNSQDRKDLDKFIKFFALKTVQVIVQARLGEKICTRSSSSPTGSDWFNLAIKDIPEVTHEAKKALAGQLPAVGRSMCVEISLKTSEGDSMELEIWCLEMNEKCDKEIKVSYTVYNRLSLLLKSLLAITRVTPAYRLSRKQGHEYVILYRIYFGEVQLSGLGEGFQTVRVGTVGTPVGTITLSCAYRINLAFMSTRQFERTPPIMGIIIDHFVDRPYPSSSPMHPCNYRTAGEDTGVIYPSVEDSQEVCTTSFSTSPPSQLSSSRLSYQPAALGVGSADLAYPVVFAAGLNATHPHQLMVPGKEGGVPLAPNQPVHGTQADQERLATCTPSDRTHCAATPSSSEDTETVSNSSEGRASPHDVLETIFVRKVGAFVNKPINQVTLTSLDIPFAMFAPKNLELEDTDPMVNPPDSPETESPLQGSLHSDGSSGGSSGNTHDDFVMIDFKPAFSKDDILPMDLGTFYREFQNPPQLSSLSIDIGAQSMAEDLDSLPEKLAVHEKNVREFDAFVETLQ

Target: T1, LZTR1 R810W-FLAG
Experiment: IP/MS, LZTR1 R810W-FLAG, U87
Experimental: (§1) Lysates were immunoprecipitated with FLAG affinity matrix and eluted with FLAG peptide. […] Protein gel slices were excised and in-gel digestion performed as previously described (83), with minor modifications. Gel slices were washed with 1:1 A cetonitrile and 100 mM ammonium bicarbonate for 30 min then dehydrated with 100% acetonitrile for 10 min until shrunk. The excess acetonitrile was then removed and the slices dried in speed-vacuum at room temperature for 10 min. Gel slices were reduced with 5 mM DTT for 30 min at 56° C. in an air thermostat, cooled down to room temperature, and alkylated with 11 mM IAA for 30 min with no light. Gel slices were then washed with 100 mM of ammonium bicarbonate and 100% acetonitrile for 10 min each. Excess acetonitrile was removed and dried in a speed-vacuum for 10 min at room temperature and the gel slices were re-hydrated in a solution of 25 ng/μl trypsin in 50 mM ammonium bicarbonate for 30 min on ice and digested overnight at 37° C. in an air thermostat. Digested peptides were collected and further extracted from gel slices in extraction buffer (1:2 ratio by volume of 5% formic acid:acetonitrile) at high speed, shaking in an air thermostat. The supernatants from both extractions were combined and dried in a speed-vacuum. Peptides were dissolved in 3% acetonitrile/0.1% formic acid. Desalted peptides were injected in an EASY-Spray™ PepMap™ RSLC C18 50 cm×[…] column (Thermo Scientific) connected to an Orbitrap Fusion™ Tribrid™ (Thermo Scientific) as described in “Global ubiquitylation enrichment” section. The following modifications were used for protein identification and quantification: oxidation of methionine (M), acetylation of the protein N-terminus, and deamination for asparagine or glutamine (NQ). Results obtained from MaxQuant were assembled in Scaffold for data visualization.

Binding result, binds:
B1
B2
B3
B4
B5

Target: T2, LZTR1-FLAG
Experiment: IP/MS, LZTR1 wild type-FLAG, U87
Experimental: as §1

Binding result, binds:
B1
B2
B3
B4
B5
